We go through 1 molecule from patent publication US20030054439A1 (Amgen, published 2003).

The target of this test is TNFα from R&D Systems (L929 cytotoxicity assay). The test is described as follows: cell-based or functional assay.

B1: sTNFR-I 3D/N105 (receptor)
chain: DSVCPQGKYIHPQNNSICCTKCHKGTYLYNDCPGPGQDTDCRECESGSFTASENHLRHCLSCSKCRKEMGQVEISSCTVDRDTVCGCRKNQYRHYWSENLFQCFNCSLCLNGTVHLSCQEKQNTVCT
With B1, the “ED50 (ng/mL), L929 cytotoxicity assay, run #2, single data point” value worked out at 413 ng/mL.
